Test results published in the Immune Epitope Database (IEDB).
pIC50: −log10 of the molar value.

Assays:
HLA-A*68:02 = test: IEDB peptide-MHC binding, cellular MHC/competitive/fluorescence; ≥ and ≤ were set here for values at or beyond the usual limits of such assays
HLA-A*02:01 = test: IEDB peptide-MHC binding, purified MHC/competitive/radioactivity; ≥ and ≤ were set here for values at or beyond the usual limits of such assays
HLA-A*02:02 = test: as above
HLA-A*02:06 = test: as above
HLA-A*02:03 = test: as above
[1] = source organism: Vaccinia virus WR
[2] = source organism: Hepacivirus hominis
[3] = source organism: Mammarenavirus whitewaterense

| Sequence | pIC50 (HLA-A*68:02; [1]) | pIC50 (HLA-A*02:01; [1]) | pIC50 (HLA-A*02:02; [1]) | pIC50 (HLA-A*02:06; [1]) | pIC50 (HLA-A*02:03; [1]) | also measured |
| --- | --- | --- | --- | --- | --- | --- |
| DMLLNVQTLI | 5.17 | 7.10 | 7.38 | 6.54 | 6.79 | – |
| ILGIIITVGM | 4.42 | 5.90 | 6.54 | 5.33 | 6.58 | – |
| VIPDELIDV | 4.28 | 6.64 | 6.22 | 6.25 | 7.36 | – |
| CLLTDTIESA | 4.65 | 6.73 | 7.28 | 7.04 | 6.99 | – |
| ALEQYGIENT | 4.66 | 5.84 | 5.50 | 5.90 | 5.67 | – |
| FLLALLSCLT | – | – | – | – | – | pIC50 (HLA-A*68:02; [2]): ≤ 4.15; pIC50 (HLA-A*02:01; [2]): 7.04; pIC50 (HLA-A*02:02; [2]): 7.07; pIC50 (HLA-A*02:06; [2]): 6.23; pIC50 (HLA-A*02:03; [2]): 6.81 |
| YNLSLSAAV | – | – | – | – | – | pIC50 (HLA-A*68:02; [3]): ≤ 4.15; pIC50 (HLA-A*02:01; [3]): 6.59; pIC50 (HLA-A*02:02; [3]): 6.06; pIC50 (HLA-A*02:06; [3]): 5.78; pIC50 (HLA-A*02:03; [3]): 5.94 |
| SLDQTHIKTI | 5.12 | 6.12 | 5.85 | 5.61 | 7.82 | – |
| FLPQIGGEAI | 5.18 | 6.80 | 9.00 | 8.00 | 7.85 | – |
| ATLNTLITL | 5.27 | 7.24 | 6.43 | 8.02 | 6.24 | – |
| ALSGVFCGV | – | – | – | – | – | pIC50 (HLA-A*68:02; source organism: SARS-CoV1): 4.65; pIC50 (HLA-A*02:01; source organism: SARS-CoV1): 7.89; pIC50 (HLA-A*02:02; source organism: SARS-CoV1): 8.92; pIC50 (HLA-A*02:06; source organism: SARS-CoV1): 7.30; pIC50 (HLA-A*02:03; source organism: SARS-CoV1): 7.92 |
| GVSGLYIPGT | 4.80 | 5.33 | 6.85 | 7.49 | 5.67 | – |
| KLLNMRDLIV | ≤ 4.15 | 8.96 | 6.71 | 8.55 | 7.54 | – |
| SLVSKHWELT | 4.79 | 7.02 | 6.39 | 5.57 | 7.46 | – |
| ILDNLRCHSA | 4.89 | 7.20 | 6.01 | 6.53 | 7.16 | – |
| LVFLILCFT | – | – | – | – | – | pIC50 (HLA-A*68:02; source organism: SARS-CoV1): 5.18; pIC50 (HLA-A*02:01; source organism: SARS-CoV1): 6.29; pIC50 (HLA-A*02:02; source organism: SARS-CoV1): 5.60; pIC50 (HLA-A*02:06; source organism: SARS-CoV1): 5.86; pIC50 (HLA-A*02:03; source organism: SARS-CoV1): 5.73 |
| AQMGTLLIA | – | – | – | – | – | pIC50 (HLA-A*68:02; source organism: SARS-CoV1): 4.91; pIC50 (HLA-A*02:01; source organism: SARS-CoV1): 7.43; pIC50 (HLA-A*02:02; source organism: SARS-CoV1): 7.19; pIC50 (HLA-A*02:06; source organism: SARS-CoV1): 9.36; pIC50 (HLA-A*02:03; source organism: SARS-CoV1): 8.80 |
| QVLQQNNSFI | 5.00 | 5.83 | 6.26 | 5.63 | 5.50 | – |

| Sequence | pIC50 (HLA-A*68:02; [1]) | pIC50 (HLA-A*02:01; [1]) | pIC50 (HLA-A*02:02; [1]) | pIC50 (HLA-A*02:06; [1]) | pIC50 (HLA-A*02:03; [1]) | also measured |
| --- | --- | --- | --- | --- | --- | --- |
| LLYFILFFVA | – | – | – | – | – | pIC50 (HLA-A*68:02; [2]): ≤ 4.15; pIC50 (HLA-A*02:01; [2]): 5.95; pIC50 (HLA-A*02:02; [2]): 5.43; pIC50 (HLA-A*02:06; [2]): 6.00; pIC50 (HLA-A*02:03; [2]): 5.33 |
| VLALYSPPLI | 4.84 | 7.26 | 7.80 | 6.06 | 7.00 | – |
| VQFSILNNPV | 4.40 | 5.72 | 6.88 | 6.73 | 6.43 | – |
| KIIAVFDSKL | 4.50 | 6.01 | 7.60 | 7.23 | 7.24 | – |
| SLVYGIRCV | 4.29 | 6.52 | 5.53 | 6.77 | 8.42 | – |
| FLMSFTILCL | – | – | – | – | – | pIC50 (HLA-A*68:02; source organism: SARS-CoV1): 5.12; pIC50 (HLA-A*02:01; source organism: SARS-CoV1): 8.04; pIC50 (HLA-A*02:02; source organism: SARS-CoV1): 9.09; pIC50 (HLA-A*02:06; source organism: SARS-CoV1): 7.13; pIC50 (HLA-A*02:03; source organism: SARS-CoV1): 6.67 |
| TLFGRGVIDT | 5.24 | 6.89 | 6.70 | 5.48 | 7.02 | – |
| WLKDSAIMVA | 5.00 | 6.17 | 7.82 | 5.32 | 5.88 | – |
| PTILATLNTL | 5.01 | 5.87 | 6.43 | 6.11 | 6.89 | – |
| ALLSCIRNA | ≤ 4.15 | 7.64 | 6.92 | 7.11 | 8.21 | – |
| PVLEKKVCAI | 4.40 | 5.82 | 6.27 | 5.98 | 5.92 | – |
| KILSDENYLL | ≤ 4.15 | 7.82 | 7.60 | 7.80 | 5.42 | – |
| ALDCQIYGA | – | – | – | – | – | pIC50 (HLA-A*68:02; [2]): ≤ 4.15; pIC50 (HLA-A*02:01; [2]): 6.84; pIC50 (HLA-A*02:02; [2]): 5.80; pIC50 (HLA-A*02:06; [2]): 5.92; pIC50 (HLA-A*02:03; [2]): 5.74 |
| SALMTLDDLA | 4.72 | 6.60 | 6.68 | 6.71 | 5.63 | – |
| LLPLTSLVI | ≤ 4.15 | 5.93 | 5.62 | 5.84 | 6.21 | – |
| SLGKSPLPSL | 4.89 | 6.87 | 8.39 | 5.84 | 7.33 | – |
| LLKCVSDSWL | 5.01 | 5.81 | 7.12 | 5.33 | 6.93 | – |
